Source: patent publication US20180148474A1 (KOREA UNIVERSITY RESEARCH AND BUSINESS FOUNDATION SEJONG …, published 2018)

Target: thymic stromal lymphopoietin (TSLP)
Assay: cell-based or functional assay

Sequence of thymic stromal lymphopoietin (TSLP) (Q969D9 29-159): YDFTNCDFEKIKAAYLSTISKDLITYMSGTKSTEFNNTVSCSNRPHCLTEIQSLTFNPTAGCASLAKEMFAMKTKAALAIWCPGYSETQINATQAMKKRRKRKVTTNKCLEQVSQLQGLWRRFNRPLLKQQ

Row | Binder | Degrees of phosphorylation of STAT5 molecules in cells (%), 0.3 µM peptide mixed with TSLP 100 ng/mL, HMC-1 cells, flow cytometry; control with TSLP alone = 100% [%] | Degrees of phosphorylation of STAT5 molecules in cells (%), 3 µM peptide mixed with TSLP 100 ng/mL, HMC-1 cells, flow cytometry; control with TSLP alone = 100% [%] | Degrees of phosphorylation of STAT5 molecules in cells (%), 30 µM peptide mixed with TSLP 100 ng/mL, HMC-1 cells, flow cytometry; control with TSLP alone = 100% [%]
1 | H-RQRASA-OH [Compound 2 (peptide derivative of Formula 2): H2N-Arg-Gln-Arg-Ala-Ser-Ala-COOH] | 84.4 | 77.9 | 69.8
2 | Ac-RQRASA-OH [Compound 3 (peptide derivative of Formula 3): CH3CONH-Arg-Gln-Arg-Ala-Ser-Ala-COOH] | 73.5 | 67.8 | 66.9
3 | H-ARQRASA-OH [Compound 4 (peptide derivative of Formula 4): H2N-Ala-Arg-Gln-Arg-Ala-Ser-Ala-COOH] | 71 | 68.3 | 70.9
4 | Ac-ARQRASA-OH [Compound 5 (peptide derivative of Formula 5): CH3CONH-Ala-Arg-Gln-Arg-Ala-Ser-Ala-COOH] | 86.1 | 84.6 | 77.1
